Data set [1] deals with the molecule itself. Put plainly: molecular brightness from raster image correlation spectroscopy (RICS); live HEK293 cells, confocal, 37 °C, bottom membrane; clusters masked out by intensity thresholding; brightness of eGFP compared with eGFP5 and Lyn-eGFP references.
Data set [2] has as its target GlyR-α3K-mCherry (glycine receptor α3 subunit, short splice variant K, N-terminally tagged with mCherry) (mouse). Nature of the data set: subunit counting by stepwise photobleaching (TIRF microscopy); fixed HEK293 cells with low copy number expression (50 ng GlyR-α3L-eGFP, 0-500 ng GlyR-α3K-mCherry); eGFP bleaching steps per diffraction-limited spot, step histogram fitted with binomial models; room temperature.

The text below walks through data of article PMC9534812, “Hetero-pentamerization determines mobility and conductance of Glycine receptor α3 splice variants” (Cellular and Molecular Life Sciences, 2022).

The term stoichiometry N denotes the number of molecules, sites or subunits per partner or assembly.

B1: GlyR-α3L-eGFP (glycine receptor α3 subunit, long splice variant L, N-terminally tagged with eGFP) (receptor, mouse, UniProt Q91XP5 34-464, looked up)
chain: ARSRSAPMSPSDFLDKLMGRTSGYDARIRPNFKGPPVNVTCNIFINSFGSIAETTMDYRVNIFLRQKWNDPRLAYSEYPDDSLDLDPSMLDSIWKPDLFFANEKGANFHEVTTDNKLLRIFKNGNVLYSIRLTLTLSCPMDLKNFPMDVQTCIMQLESFGYTMNDLIFEWQDEAPVQVAEGLTLPQFLLKEEKDLRYCTKHYNTGKFTCIEVRFHLERQMGYYLIQMYIPSLLIVILSWVSFWINMDAAPARVALGITTVLTMTTQSSGSRASLPKVSYVKAIDIWMAVCLLFVFSALLEYAAVNFVSRQHKELLRFRRKRKNKTEAFALEKFYRFSDTDDEVRESRFSFTAYGMGPCLQAKDGVVPKGPNHAVQVMPKSPDEMRKVFIDRAKKIDTISRACFPLAFLIFNIFYWVIYKILRHEDIHQQQD
notes: Glycine receptor subunit alpha-3, mouse, splice variant L (464 residues); The receptor assembles as a pentamer; the molecule here is the subunit; also called L variant; GlyR-α3L-FP; source: HEK293, transiently transfected (calcium phosphate; truncated CMV promoter), in the membrane of live or fixed cells; not shown: eGFP, N-terminal, kept
As for B1, in data set [1], the “stoichiometry N” value was 5. Also, in data set [2], the heteropentameric fraction (2nd order binomial fit) was determined as 23%, the heteropentameric fraction (3rd order binomial fit) amounted to 36% and the heteropentameric fraction (4th order binomial fit) came out at 67%.
